Substitutions are numbered along the chain they refer to.

Results on three molecules are retold here after patent US20240325557A1, “TREATMENT OF CANCER” (INNATE PHARMA, priority 2020, published 2024).

Assay [1] has as its target Rat Nectin-4 on CHO cells (rat). Description: flow cytometry titration on CHO cells expressing rat Nectin-4, median MFI (PE).
Assay [2] has as its target monomeric huNectin4-his-BirA protein (human) (UniProt Q96NY8). Nature of the assay: SPR (Biacore T200), antibody captured on Protein A, monomeric huNectin4-his-BirA injected. For orientation: In SPR one partner is held on a chip, and binding of the other changes the refractive index at the surface.

B1: antibody 5E7 (antibody, human IgG1, V domains shown)
VH: QVQLQQPGAELVKPGASVKLSCKASGYIFTSYWMHWVKQRPGQGLEWIGEIDPSDSYTNYNQKFKGKATLTLDKSSSTTYMQLSSLTSEDSAVYYCVRGYGNYGDYWGQGTTLTVSS
VL: DVVMTQAAFSNPVTLGTSASISCRSSKSLLHSNGITYLYWYLQKPGQSPQLLIYQMSNLASGVPDRFSSSGSGTDFTLRISRVEAEDVGVYYCAQNLELPWTFGGGTKLEIK
The EC50 (read off the curve) is the concentration at which the effect is half-maximal. Read a low EC50 (read off the curve) as a more potent agent. For B1, the EC50 (read off the curve) in assay [1] was found to be 0.1 µg/mL.

B2: antibody 10B12 (antibody, human IgG1, V domains shown)
VH: B1 VH with I28T, L72V, T79A
VL: B1 VL with V2I
Take B2: in assay [1], the EC50 (read off the curve) worked out at 0.1 µg/mL.

B3: Enfortumab (ASG-22ME) (antibody, from a related filing, V domains shown)
VH: EVQLVESGGGLVQPGGSLRLSCAASGFTFSSYNMNWVRQAPGKGLEWVSYISSSSSTIYYADSVKGRFTISRDNAKNSLSLQMNSLRDEDTAVYYCARAYYYGMDVWGQGTTVTVSS
VL: DIQMTQSPSSVSASVGDRVTITCRASQGISGWLAWYQQKPGKAPKFLIYAASTLQSGVPSRFSGSGSGTDFTLTISSLQPEDFATYYCQQANSFPPTFGGGTKVEIKR
The term Kd denotes the constant that tells how readily two partners part at equilibrium. The low end stands for higher affinity, the high end for lower affinity. As a reminder, the koff is a measure of how fast the partners let go of each other. Low values mean slow dissociation, high ones fast dissociation. In general, kon refers to a measure of how fast the partners come together. Turning to B3, in assay [2], the dissociation constant (Kd) came out at 13.7 nM, the koff is 0.0047 s⁻¹ and the kon worked out at 340000 M⁻¹ s⁻¹.
